# Data taken from PMC7761029, “Identifying Genes Involved in Alkaloid Biosynthesis in Vinca minor through Transcriptomics and Gene Co-Expression Analysis” (Biomolecules, 2020).
# What was measured:
# purified protein = substrate: C[S+](CC[C@H](N)C(=O)O)C[C@H]1O[C@@H](n2cnc3c(N)ncnc32)[C@H](O)[C@@H]1O; assay: purified protein; details: methyl donor, fixed 16-hydroxytabersonine, 1-200 µM SAM, 50 mM potassium phosphate pH 7, 25 mM ascorbic acid, 30 °C
# [1] = substrate: [H][C@]12N3CC=C[C@@]1(CC)CC(C(=O)OC)=C1Nc4cc(O)ccc4[C@@]12CC3; assay: initial velocities of 16-methoxytabersonine formation, LC-MS, Michaelis-Menten non-linear regression; assay type: biochemical, Vinca minor; details: fixed SAM, 0.2-100 µM substrate, 50 mM potassium phosphate pH 7, 25 mM ascorbic acid, 30 °C
protein,measurement,setting,value
Vm16OMT (Vinca minor) (protein) MDVQSDEFSKAQAHIWSQVLCHIPTATIKCAIELGIPDAIDNHGKAMTLAELTNSLPLINPSKAPFVRRLMRILVKNGFFSEQQITNDHIAYGLTPSSRILLKNEPLNLRGLVLANLDPSHMKSWVALSEWFQNDNEEAKTAFEIAHNGKNFWDYSAEDTEHAEIFNEAMASDSKLVSELLINTEYKLLFEGLTSMVDVGGGTGTIAKAIAKTFPNLNCTVFDLPHVVANLESMGNLEFVAGDMFVKIPPANAIFLKWILHDWNDEDCVKILKACKKAIPEKEKGGKVIVIDTVIGSKINDDESIKAQLSMDMGMMVDFASKERDEKEWASLFKEAGFSNYKIFPKLDFIRSVIEVYP,Km,purified protein,46.2 ± 6.1 µM
same,kcat,purified protein,0.039 s⁻¹
same,Km,[1],0.94 ± 0.06 µM
same,kcat,[1],0.0144 s⁻¹
